In patent US20260008866A1 (published 2026) one finds Kd data, which are given here for two molecules.

Among the targets are 20809; 20807; 20814; 20817; 20812.
Common to all, as to assay: ForteBio Octet (BLI)
On the technique in general: Biolayer interferometry detects binding as a change in optical thickness at a sensor tip.

B1: Cyno (Fc fusion)
chain: LFTVTVPKELYIIEHGSNATLECNFDTGSHVNLGAITASLQKVENDTSPHRERATLLEEQLSLGKALFHIPQVQVRDEGQYQCIIIYGVAWDYKYLTLKVKASYRKINTHILKVPETDEVELTCQATGYPLAEVSWPNISVPANTSHSRTPEGLYQVTSVLRLKPHPGRNFSCVFWNAQVRELTLASIDLQSQIEPRTHP
As usually defined, the Kd is the free concentration of one partner at which half of the binding sites on the other are occupied at equilibrium, for simple one-to-one binding. Lower therefore signals higher affinity. In the case of B1, the Kd with 20809 is 0.253 nM; in the experiment with 20807 it was 0.25 nM; with 20814, 0.31 nM; in the experiment with 20817, 0.283 nM; with 20812 it was 0.312 nM.

B2: Human (ligand)
chain: LFTVTVPKELYIIEHGSNVTLECNFDTGSHVNLGAITASLQKVENDTSPHRERATLLEEQLPLGKASFHIPQVQVRDEGQYQCIIIYGVAWDYKYLTLKVKASYRKINTHILKVPETDEVELTCQATGYPLAEVSWPNVSVPANTSHSRTPEGLYQVTSVLRLKPPPGRNFSCVFWNTHVRELTLASIDLQSQMEPRTHPT
As for B2, the Kd was 1.53 nM with 20809, 0.58 nM in the experiment with 20807, 0.325 nM in the experiment with 20814 and 0.347 nM in the experiment with 20817.
